In article doi:10.1101/765990 (bioRxiv, 2019):

Molecular target: T1, Sed5p Habc domain (amino acids 1-210) (budding yeast, UniProt Q01590 1-210)
T1 sequence: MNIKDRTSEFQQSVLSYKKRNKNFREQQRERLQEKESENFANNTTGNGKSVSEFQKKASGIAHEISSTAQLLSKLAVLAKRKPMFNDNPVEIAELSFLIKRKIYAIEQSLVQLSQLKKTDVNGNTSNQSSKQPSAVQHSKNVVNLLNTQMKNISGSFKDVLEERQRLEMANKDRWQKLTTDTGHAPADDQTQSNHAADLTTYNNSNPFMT
Test: native gel or EMSA

B1: Sed5p SNARE-motif (amino acids 211-320), wild type (domain or fragment)
chain: SLLDESSEKNNNSSNQGELSFPQNDSQLMLMEEGQLSNNVYLQERNRAVETIESTIQEVGNLFQQLASMVQEQGEVIQRIDANVDDIDLNISGAQRELLKYFDRIKSNRW
B1: binds.
